Laboratory results as given in patent publication US20260209365A1, “ANTI-COMMON GAMMA CHAIN PROTEINS AND COMPOSITIONS OF MATTER” (SINOMAB BIOSCIENCE LIMITED, priority 2023, published 2026).
Residue numbers refer to the chain shown, from its start. Blank lines part the entries; values can stand above or below the molecule they belong to.

Legend:
[1] = molecular target: T1, human γc protein (extracellular domain) (human, UniProt P31785 23-262); experiment: monoclonal phage ELISA, human γc protein; negative control
T1 construct: Purchased from Sino Biological or made in-house; Residues 1-262 may hold the signal peptide; also called human common gamma chain; purified human γc
T1 sequence: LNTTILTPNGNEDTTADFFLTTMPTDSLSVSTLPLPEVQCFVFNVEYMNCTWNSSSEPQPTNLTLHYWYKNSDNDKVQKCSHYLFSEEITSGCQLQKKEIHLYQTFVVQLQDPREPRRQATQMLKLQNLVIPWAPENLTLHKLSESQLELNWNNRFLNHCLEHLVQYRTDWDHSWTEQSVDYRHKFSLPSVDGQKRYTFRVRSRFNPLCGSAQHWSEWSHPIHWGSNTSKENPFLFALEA

[2] = molecular target: T2, common marmoset γc protein (extracellular domain) (common marmoset, UniProt P31785 26-262 (human entry)); experiment: BLI, antibody on anti-human IgG sensors, common marmoset γc in solution
T2 construct: also called Callithrix jacchus γc
T2 chain: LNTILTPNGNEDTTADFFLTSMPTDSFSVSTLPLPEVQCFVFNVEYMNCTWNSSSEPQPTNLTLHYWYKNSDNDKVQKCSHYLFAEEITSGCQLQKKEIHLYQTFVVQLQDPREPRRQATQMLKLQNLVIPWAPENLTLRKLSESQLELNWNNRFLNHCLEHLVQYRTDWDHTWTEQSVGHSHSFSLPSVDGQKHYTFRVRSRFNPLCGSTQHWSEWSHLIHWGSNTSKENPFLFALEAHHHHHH
Description: (§1) Full-length humanized antibodies were evaluated by BLI to access their binding kinetics. The binding activities of full-length anti-γc antibody were investigated using γc proteins (extracellular domain) from human and common marmoset (either purchased or in-house generated). Briefly, anti-γc antibody (20 μg/mL) was immobilized on biosensors via interactions with anti-human IgG; serially diluted γc proteins (at a concentration of 158.7 nM, 79.4 Nm, 39.7n M and 0 nM respectively) were subsequently added following standard operation protocols of the Octet ReD96 system to plot out the association and dissociation curve. Irrelevant antibody (SM03, anti-human CD22 chimeric IgG1 antibody, SinoMab BioScience Limited) was used as the control reference. The KD is within the picomolar-single digit nanomolar range.

[3] = molecular target: T3, rat γc protein (extracellular domain) (rat); experiment: BLI, antibody on anti-human IgG sensors, rat γc in solution
T3 chain: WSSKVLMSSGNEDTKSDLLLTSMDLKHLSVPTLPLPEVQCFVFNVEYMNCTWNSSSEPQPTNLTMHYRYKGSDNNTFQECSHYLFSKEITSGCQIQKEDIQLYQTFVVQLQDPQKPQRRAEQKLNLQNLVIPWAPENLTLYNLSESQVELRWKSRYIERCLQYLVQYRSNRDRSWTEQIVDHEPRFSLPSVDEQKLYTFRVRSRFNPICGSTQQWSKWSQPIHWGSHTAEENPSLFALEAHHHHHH

[4] = molecular target: T4, cynomolgus γc protein (extracellular domain) (cynomolgus, UniProt P31785 23-254 (human entry)); experiment: BLI, antibody on anti-human IgG sensors, cynomolgus γc in solution
T4 construct: also called Macaca fascicularis γc
T4 chain: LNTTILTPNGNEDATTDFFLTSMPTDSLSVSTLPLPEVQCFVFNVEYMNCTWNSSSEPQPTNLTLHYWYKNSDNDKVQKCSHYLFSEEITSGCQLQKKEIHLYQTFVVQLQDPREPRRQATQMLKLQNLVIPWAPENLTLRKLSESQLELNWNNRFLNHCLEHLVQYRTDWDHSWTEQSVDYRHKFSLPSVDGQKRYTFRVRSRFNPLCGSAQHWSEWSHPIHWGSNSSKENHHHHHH

[5] = molecular target: T1, human γc protein (extracellular domain); experiment: BLI (Octet RED96), antibody on anti-human IgG sensors, γc in solution; Experiment 1
Description: as §1

[6] = molecular target: T1, human γc protein (extracellular domain); experiment: BLI (Octet RED96), antibody on anti-human IgG sensors, γc in solution; Experiment 2
Description: as §1

[7] = molecular target: T5, mouse γc protein (extracellular domain) (mouse, UniProt P34902 23-263); experiment: BLI, antibody on anti-human IgG sensors, mouse γc in solution
T5 construct: also called Mus musculus γc
T5 sequence: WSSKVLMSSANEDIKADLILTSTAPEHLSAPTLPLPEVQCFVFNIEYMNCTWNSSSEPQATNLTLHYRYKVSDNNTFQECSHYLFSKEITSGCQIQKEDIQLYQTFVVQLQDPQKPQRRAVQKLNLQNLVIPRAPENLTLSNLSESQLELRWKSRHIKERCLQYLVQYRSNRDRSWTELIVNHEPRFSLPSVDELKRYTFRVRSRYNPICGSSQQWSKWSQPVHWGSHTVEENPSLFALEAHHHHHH
Description: as §1

[8] = test system: IL-9 induced STAT3 phosphorylation; experiment: Inhibition of IL-9 induced STAT3 phosphorylation in Jurkat T cell line, flow cytometry; assay type: cell-based, human; conditions: ScFv 10 μg/ml
Text: (§2) Cells were harvested and stained with FITC conjugated anti-pSTAT6, PE conjugated anti-pSTAT3 or APC con jugated anti-pSTAT5 antibodies for flow cytometry analyses. In some embodiments, the purified ScFv could block the IL-4 induced STAT6 phosphorylation in cell culture (e.g., Ramos). In some embodiments, the purified ScFv could block the IL-7 induced STAT5 phosphorylation in cell culture (e.g., HPB-ALL). In some embodiments, the purified ScFv could block the IL-9 induced STAT3 phosphorylation in cell culture (e.g., Jurkat). In some embodiments, the purified ScFv could block the IL-15 induced STAT5 phosphorylation in cell culture (e.g., KHYG-1). In some embodiments, the purified ScFv could block the IL-21 induced STAT3 phosphorylation in cell culture (e.g., Ramos).
(§3) Flow cytometry was employed to measure the percentage of p-STAT expressing cells after cytokine induction and anti-γc ScFv treatment. KHYG-1 (Creative Bioarray, Shirley, NY 11967, USA) was starved in IL-2 free RPMI1640 (ATCC modification, ThermoFisher Scientific, Waltham, MA, USA) with 10% FBS (ThermoFisher Scientific) for 2 days. Ramos, HPB-ALL and Jurkat cell lines were used directly without starvation. Cells were replenished with fresh RPMI1640 medium and pretreated with anti-γc ScFv (10 μg/mL) for an hour. After treatment with TL-4 (10 ng/ml, Sino Biological), IL-7 (50 ng/ml, Sino Biological), IL-9 (50 ng/ml, Sino Biological), IL-15 (10 ng/ml, Sino Biological) or IL-21 (10 ng/ml, Sino Biological) for 15 min, cells were fixed in 4% paraformaldehyde (PFA, Sigma, St. Louis, Missouri, USA) for 10 min, permeabilized in 0.1% Triton X-100 (Sigma) for 10 min and then stained with FITC conjugated anti-pSTAT6, PE conjugated anti-pSTAT3 or APC con jugated anti-pSTAT5 (all diluted in 1:100, Biolegend, San Diego, California, USA) for 30 min at 37° C. Percentage of p-STAT expressing cells was measured by BD FACSLyric™ Clinical Flow Cytometry System (BD Biosciences, New Jersey, USA). Data were analyzed by Flowjo (version 10, BD).
(§4) Different cell lines were used for testing. KHYG-1 refers to the NK cell line harvested from the peripheral blood of a person with aggressive NK cell leukemia. This cell line could respond to IL-2 and IL-15 stimulation in-vitro [Yamasaki et al., Leuk Res., […]; 28 (10): 1023-31]. Ramos is a human Burkitts Lymphoma cell line (CRL-1596™) and could be used as a model for IL-4 and IL-21 studies [Hui et al., Front Immunol., 2022; 13: 919854]. Jurkat is a human T lymphoblast cell line (Clone E6-1, TIB-152™) and is widely used in the T cell studies of IL-9 function. HPB-ALL is a T cell leukemia model established from the peripheral blood of a child with ALL and thymoma at diagnosis in 1973 and could be used for IL-7 functional studies.

[9] = test system: IL-4 induced STAT6 phosphorylation; experiment: Inhibition of IL-4 induced STAT phosphorylation in Ramos B cell line, flow cytometry; assay type: cell-based, human; conditions: ScFv 10 μg/ml
Text: as §2, §3, §4

[10] = test system: IL-21 induced STAT3 phosphorylation; experiment: Inhibition of IL-21 induced STAT phosphorylation in Ramos B cell line, flow cytometry; assay type: cell-based, human; conditions: ScFv 10 μg/ml
Text: as §2, §3, §4

[11] = test system: IL-15 induced STAT5 phosphorylation; experiment: Inhibition of IL-15 induced STAT phosphorylation in KHYG-1 NK cell line, flow cytometry; assay type: cell-based, human; conditions: ScFv 10 μg/ml
Text: as §2, §3, §4

[12] = test system: IL-7 induced STAT5 phosphorylation; experiment: Inhibition of IL-7 induced STAT5 phosphorylation in HPB-ALL T cell line, flow cytometry; assay type: cell-based, human; conditions: ScFv 10 μg/ml
Text: as §2, §3, §4

- OD (450 nm) [1]: 0.045 OD
Molecule: M13KO7 (negative)

- Kd [2]: 4.05 nM
- koff [2]: 0.00121 s⁻¹
- kon [2]: 300000 M⁻¹ s⁻¹
- Kd [3]: 16.1 nM
- Kd [4]: 304 nM
- koff [4]: 0.00683 s⁻¹
- kon [4]: 22500 M⁻¹ s⁻¹
- Kd [5]: 2.69 nM
- koff [5]: 0.000319 s⁻¹
- kon [5]: 119000 M⁻¹ s⁻¹
- Kd [6]: 8.23 nM
- koff [6]: 0.00144 s⁻¹
- kon [6]: 175000 M⁻¹ s⁻¹
- Kd [7]: 108 nM
- koff [7]: 0.000712 s⁻¹
- kon [7]: 6580 M⁻¹ s⁻¹
B1: hSM-05A (humanized anti-γc antibody with back-mutation) (antibody, V domains shown)
VH: QVQLVQSGAEVLKPGASVKVSCKASGYTFTEYTMHWVKQARGQRLEWIGGIDPYNGGATYNQRFKGKATLTTDTSTSTAYMELRNLRSDDTAVYYCARRRLYYGNALDYWGQGTLVTVSS
VL: DIVMTQSPLSLPVTPGEQASISCRSSQSLVHSNGNTYLHWYLQKPGQSPQLLIYKVSSRFSGVPDRFSGSGSGTDFTLKISRVEAEDVGVYFCSQTTHVPFTFGSGTKLEIKR
notes: Full-length humanized antibody; 199-200' and the pairing of claim 11(b); also called hbSM-05A; humanized SM-05A

- Kd [2]: 5.27 nM
- koff [2]: 0.00175 s⁻¹
- kon [2]: 333000 M⁻¹ s⁻¹
- Kd [3]: 29.3 nM
- koff [3]: 0.00208 s⁻¹
- kon [3]: 71000 M⁻¹ s⁻¹
- Kd [4]: 304 nM
- koff [4]: 0.00683 s⁻¹
- kon [4]: 22500 M⁻¹ s⁻¹
- Kd [5]: 4.82 nM
- koff [5]: 0.000573 s⁻¹
- kon [5]: 119000 M⁻¹ s⁻¹
- Kd [6]: 2.89 nM
- koff [6]: 0.000944 s⁻¹
- kon [6]: 327000 M⁻¹ s⁻¹
- Kd [7]: 66.2 nM
- koff [7]: 0.0252 s⁻¹
- kon [7]: 340000 M⁻¹ s⁻¹
B2: hSM-05E (humanized anti-γc antibody with back-mutation) (antibody, V domains shown)
VH: B1 VH with Y54N, N55T, A58V, R63K, L101R, N105Y
VL: B1 VL with L29I, H39E, S58N, T96S, T102M
notes: Full-length humanized antibody; VH 198 / VL 200 tied to SM-05E only by the order '(e.g., SM-05A, SM-05E) ; 199-200' and the pairing of claim 11(d); also called hbSM-05E; humanized SM-05E

B3: SM-05B: anti-γc antibody; CDR SEQ ID NO: 20, 22, 24, 28, 30, 32 (antibody, V domains shown)
VH: QVQLQQSGPELVKPGASVKIFCKTSGYTFTEYTMHWVKQSHGESLEWIGGIDPNTGGATYNQKFKGKATLTADKSSSTAYMELRSLTSEDSAVYYCARRRRYYGYALDYWGQGTSVTVSS
VL: DVLMTQTPLSLPVSLGDQASISCRSSQSIVHSNGNTYLEWYLQKPGQSPKLLIYKVSNRFSGVPDRFSGSGSGTDFTLKISRVEAEDLGVYFCSQSTHVPWTFGGGTKLEIK
modifications: left off: another chain or arm of the molecule; small tags and cut ends
- p-STAT3 inhibition (%) [8]: 82.64%
- p-STAT6 inhibition (%) [9]: 76.95%
- p-STAT3 inhibition (%) [10]: 13.85%
- p-STAT5 inhibition (%) [11]: 47.06%
- p-STAT5 inhibition (%) [12]: 94.50%

B4: SM-05D: anti-γc antibody; CDR SEQ ID NO: 52, 54, 56, 60, 62, 64 (antibody, V domains shown)
VH: B3 VH with F21S, E43K, N54Y, T55N, A58V, K63R, A72V, L83F, R101L, Y105N
VL: B3 VL with V2I, L3V, S32R, F92Y, S94F, S96G, T97S, W101F, G105S
modifications: left off: another chain or arm of the molecule; small tags and cut ends
- p-STAT3 inhibition (%) [8]: 100%
- p-STAT6 inhibition (%) [9]: 63.77%
- p-STAT3 inhibition (%) [10]: 30.00%
- p-STAT5 inhibition (%) [11]: 48.59%
- p-STAT5 inhibition (%) [12]: 99.80%

B5: SM-05C: anti-γc antibody; CDR SEQ ID NO: 36, 38, 40, 44, 46, 48 (antibody, V domains shown)
VH: B3 VH with L107M
VL: B3 VL with L3V, I29L, E39H, V90I, F92Y, S94F, S96D, T97S, W101F, G105S
modifications: left off: another chain or arm of the molecule; small tags and cut ends
- p-STAT3 inhibition (%) [8]: 97.92%
- p-STAT6 inhibition (%) [9]: 45.99%
- p-STAT3 inhibition (%) [10]: 29.10%
- p-STAT5 inhibition (%) [11]: 46.04%
- p-STAT5 inhibition (%) [12]: 100%
